Results reported in US20110105394A1 (Novo Nordisk, published 2011).
*1 amine or outer side, *2 acyl side, *3 side chain or, on linkers, in order; H or OH if unused. Bridges are numbered along the chain shown (N, C = ends). Where no end group is shown, it is not given here. The star is where a group is joined. X2 = (S)‑4‑Carboxy‑4‑(19-carboxynonadecanoylamino)butyryl, O=C(O)CCCCCCCCCCCCCCCCCCC(=O)N[C@@H](CCC(=O)*)C(=O)O; C20 diacid = O=C(O)CCCCCCCCCCCCCCCCCCC(=O)*; γGlu = O=C(O)[C@H](CCC(=O)[*:2])N[*:1]

T1: Amylin 3(a) receptor (human calcitonin receptor (CTa) with RAMP-3) (human, UniProt P30988 25-474; O60896 24-148, limits assumed)
T1 sequence (looked up) 1: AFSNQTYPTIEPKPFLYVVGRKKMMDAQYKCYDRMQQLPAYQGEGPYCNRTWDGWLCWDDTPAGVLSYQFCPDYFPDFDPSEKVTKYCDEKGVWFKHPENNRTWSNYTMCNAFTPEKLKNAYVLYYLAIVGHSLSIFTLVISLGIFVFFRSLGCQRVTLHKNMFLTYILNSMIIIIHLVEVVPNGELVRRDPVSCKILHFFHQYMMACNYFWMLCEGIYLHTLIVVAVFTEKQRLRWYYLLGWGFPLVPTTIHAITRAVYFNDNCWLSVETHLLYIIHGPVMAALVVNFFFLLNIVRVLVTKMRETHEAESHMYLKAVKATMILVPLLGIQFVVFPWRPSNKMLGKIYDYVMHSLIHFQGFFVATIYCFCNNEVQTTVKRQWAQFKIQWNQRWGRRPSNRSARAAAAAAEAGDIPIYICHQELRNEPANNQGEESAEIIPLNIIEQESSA
T1 sequence (looked up) 2: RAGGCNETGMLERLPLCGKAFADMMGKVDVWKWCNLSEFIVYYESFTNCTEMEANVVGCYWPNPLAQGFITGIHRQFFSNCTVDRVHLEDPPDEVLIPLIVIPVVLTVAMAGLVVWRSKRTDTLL


Each binder was assayed against T1, Amylin 3(a) receptor (human calcitonin …) (assay: cell-based or functional assay).

| Binder | Potency Luciferase |
| --- | --- |
| HRHCNTATCATQRLANFLHHSSNNFGPILPPTNVGSNTY-NH2 (disulfide 4-9; not fully specified (N-terminus); printed as N-alpha-[(S)-4-Carboxy-4-(19-carboxynonadecanoylamino)butyryl]-His-Arg-[His1,His17]-pramlintide) [N-alpha-[(S)-4-Carboxy-4-(19-carboxynonadecanoylamino)butyryl]-His-Arg-[His1,His17]-pramlintide] | 0.05 nM |
| X2-RHRCNTATCATQRLANFLHHSSNNFGPILPPTNVGSNTY-NH2 (disulfide 4-9; SMILES CC[C@H](C)[C@H](NC(=O)[C@@H]1CCCN1C(=O)CNC(=O)[C@H](Cc1ccccc1)NC(=O)[C@H](CC(N)=O)NC(=O)[C@H](CC(N)=O)NC(=O)[C@H](CO)NC(=O)[C@H](CO)NC(=O)[C@H](Cc1c[nH]cn1)NC(=O)[C@H](Cc1c[nH]cn1)NC(=O)[C@H](CC(C)C)NC(=O)[C@H](Cc1ccccc1)NC(=O)[C@H](CC(N)=O)NC(=O)[C@H](C)NC(=O)[C@H](CC(C)C)NC(=O)[C@H](CCCNC(=N)N)NC(=O)[C@H](CCC(N)=O)NC(=O)[C@@H](NC(=O)[C@H](C)NC(=O)[C@@H]1CSSC[C@H](NC(=O)[C@H](CCCNC(=N)N)NC(=O)[C@H](Cc2c[nH]cn2)NC(=O)[C@H](CCCNC(=N)N)NC(=O)CC[C@H](NC(=O)CCCCCCCCCCCCCCCCCCC(=O)O)C(=O)O)C(=O)N[C@@H](CC(N)=O)C(=O)N[C@@H]([C@@H](C)O)C(=O)N[C@@H](C)C(=O)N[C@@H]([C@@H](C)O)C(=O)N1)[C@@H](C)O)C(=O)N[C@@H](CC(C)C)C(=O)N1CCC[C@H]1C(=O)N1CCC[C@H]1C(=O)N[C@H](C(=O)N[C@@H](CC(N)=O)C(=O)N[C@H](C(=O)NCC(=O)N[C@@H](CO)C(=O)N[C@@H](CC(N)=O)C(=O)N[C@H](C(=O)N[C@@H](Cc1ccc(O)cc1)C(N)=O)[C@@H](C)O)C(C)C)[C@@H](C)O) [N-alpha-[(S)-4-Carboxy-4-(19-carboxynonadecanoylamino)butyryl]-Arg-His[Arg1,His17]-pramlintide] | 0.1 nM |
| {C20 diacid}-EKRCNTATCATQRLANFLHHSSNNFGPILPPTNVGSNTY-NH2 (disulfide 4-9; SMILES CC[C@H](C)[C@H](NC(=O)[C@@H]1CCCN1C(=O)CNC(=O)[C@H](Cc1ccccc1)NC(=O)[C@H](CC(N)=O)NC(=O)[C@H](CC(N)=O)NC(=O)[C@H](CO)NC(=O)[C@H](CO)NC(=O)[C@H](Cc1c[nH]cn1)NC(=O)[C@H](Cc1c[nH]cn1)NC(=O)[C@H](CC(C)C)NC(=O)[C@H](Cc1ccccc1)NC(=O)[C@H](CC(N)=O)NC(=O)[C@H](C)NC(=O)[C@H](CC(C)C)NC(=O)[C@H](CCCNC(=N)N)NC(=O)[C@H](CCC(N)=O)NC(=O)[C@@H](NC(=O)[C@H](C)NC(=O)[C@@H]1CSSC[C@H](NC(=O)[C@H](CCCNC(=N)N)NC(=O)[C@H](CCCCN)NC(=O)[C@H](CCC(=O)O)NC(=O)CCCCCCCCCCCCCCCCCCC(=O)O)C(=O)N[C@@H](CC(N)=O)C(=O)N[C@@H]([C@@H](C)O)C(=O)N[C@@H](C)C(=O)N[C@@H]([C@@H](C)O)C(=O)N1)[C@@H](C)O)C(=O)N[C@@H](CC(C)C)C(=O)N1CCC[C@H]1C(=O)N1CCC[C@H]1C(=O)N[C@H](C(=O)N[C@@H](CC(N)=O)C(=O)N[C@H](C(=O)NCC(=O)N[C@@H](CO)C(=O)N[C@@H](CC(N)=O)C(=O)N[C@H](C(=O)N[C@@H](Cc1ccc(O)cc1)C(N)=O)[C@@H](C)O)C(C)C)[C@@H](C)O) [N-alpha-[19-carboxynonadecanoyl]-Glu-Lys-[Arg1,His17]-pramlintide] | 0.07 nM |
| X2-ERHRCNTATCATQRLANFLHHSSNNFGPILPPTNVGSNTY-NH2 (disulfide 5-10; SMILES CC[C@H](C)[C@H](NC(=O)[C@@H]1CCCN1C(=O)CNC(=O)[C@H](Cc1ccccc1)NC(=O)[C@H](CC(N)=O)NC(=O)[C@H](CC(N)=O)NC(=O)[C@H](CO)NC(=O)[C@H](CO)NC(=O)[C@H](Cc1c[nH]cn1)NC(=O)[C@H](Cc1c[nH]cn1)NC(=O)[C@H](CC(C)C)NC(=O)[C@H](Cc1ccccc1)NC(=O)[C@H](CC(N)=O)NC(=O)[C@H](C)NC(=O)[C@H](CC(C)C)NC(=O)[C@H](CCCNC(=N)N)NC(=O)[C@H](CCC(N)=O)NC(=O)[C@@H](NC(=O)[C@H](C)NC(=O)[C@@H]1CSSC[C@H](NC(=O)[C@H](CCCNC(=N)N)NC(=O)[C@H](Cc2c[nH]cn2)NC(=O)[C@H](CCCNC(=N)N)NC(=O)[C@H](CCC(=O)O)NC(=O)CC[C@H](NC(=O)CCCCCCCCCCCCCCCCCCC(=O)O)C(=O)O)C(=O)N[C@@H](CC(N)=O)C(=O)N[C@@H]([C@@H](C)O)C(=O)N[C@@H](C)C(=O)N[C@@H]([C@@H](C)O)C(=O)N1)[C@@H](C)O)C(=O)N[C@@H](CC(C)C)C(=O)N1CCC[C@H]1C(=O)N1CCC[C@H]1C(=O)N[C@H](C(=O)N[C@@H](CC(N)=O)C(=O)N[C@H](C(=O)NCC(=O)N[C@@H](CO)C(=O)N[C@@H](CC(N)=O)C(=O)N[C@H](C(=O)N[C@@H](Cc1ccc(O)cc1)C(N)=O)[C@@H](C)O)C(C)C)[C@@H](C)O) [N-alpha-[(S)-4-Carboxy-4-(19-carboxynonadecanoylamino)butyryl]-Glu-Arg-His-[Arg1,His17]-pramlintide] | 0.1 nM |
| {C20 diacid}-EKRKCNTATCATQRLANFLHHSSNNFGPILPPTNVGSNTY-NH2 (disulfide 5-10; SMILES CC[C@H](C)[C@H](NC(=O)[C@@H]1CCCN1C(=O)CNC(=O)[C@H](Cc1ccccc1)NC(=O)[C@H](CC(N)=O)NC(=O)[C@H](CC(N)=O)NC(=O)[C@H](CO)NC(=O)[C@H](CO)NC(=O)[C@H](Cc1c[nH]cn1)NC(=O)[C@H](Cc1c[nH]cn1)NC(=O)[C@H](CC(C)C)NC(=O)[C@H](Cc1ccccc1)NC(=O)[C@H](CC(N)=O)NC(=O)[C@H](C)NC(=O)[C@H](CC(C)C)NC(=O)[C@H](CCCNC(=N)N)NC(=O)[C@H](CCC(N)=O)NC(=O)[C@@H](NC(=O)[C@H](C)NC(=O)[C@@H]1CSSC[C@H](NC(=O)[C@H](CCCCN)NC(=O)[C@H](CCCNC(=N)N)NC(=O)[C@H](CCCCN)NC(=O)[C@H](CCC(=O)O)NC(=O)CCCCCCCCCCCCCCCCCCC(=O)O)C(=O)N[C@@H](CC(N)=O)C(=O)N[C@@H]([C@@H](C)O)C(=O)N[C@@H](C)C(=O)N[C@@H]([C@@H](C)O)C(=O)N1)[C@@H](C)O)C(=O)N[C@@H](CC(C)C)C(=O)N1CCC[C@H]1C(=O)N1CCC[C@H]1C(=O)N[C@H](C(=O)N[C@@H](CC(N)=O)C(=O)N[C@H](C(=O)NCC(=O)N[C@@H](CO)C(=O)N[C@@H](CC(N)=O)C(=O)N[C@H](C(=O)N[C@@H](Cc1ccc(O)cc1)C(N)=O)[C@@H](C)O)C(C)C)[C@@H](C)O) [N-alpha-[19-carboxynonadecanoyl]-Glu-Lys-Arg-[His17]-pramlintide] | 0.06 nM |

Now from value to binder:

| Potency Luciferase | Binder |
| --- | --- |
| 0.2 nM | {C20 diacid-γGlu}-KCNTATCATQRLANFLHHSSNNFGPILPPTNVGSNTY-NH2 (disulfide 2-7) [N-alpha-[(S)-4-Carboxy-4-(19-carboxynonadecanoylamino)butyryl]-[His17]-pramlintide] |
| 0.09 nM | HHRCNTATCATQRLANFLHHSSNNFGPILPPTNVGSNTY-NH2 (disulfide 4-9; not fully specified (N-terminus); printed as N-alpha-[(S)-4-Carboxy-4-(19-carboxynonadecanoylamino)butyryl]-His-His-[Arg1,His17]-pramlintide) [N-alpha-[(S)-4-Carboxy-4-(19-carboxynonadecanoylamino)butyryl]-His-His-[Arg1,His17]-pramlintide] |
